Values of other authors in patent publication US12628856B2, “Nutritional composition having lipophilic compounds with improved solubility and bioavailability” (Abbott Laboratories, priority 2013, dated 2026).

B1: GSTP1: reference protein with published lutein Kd (protein, UniProt P09211 2-210, looked up)
Glutathione S-transferase P: PPYTVVYFPVRGRCAALRMLLADQGQSWKEEVVTVETWQEGSLKASCLYGQLPKFQDGDLTLYQSNTILRHLGRTLGLYGKDQQEAALVDMVNDGVEDLRCKYISLIYTNYEAGKDDYVKALPGQLKPFETLLSQNQGGKTFIVGDQISFADYNLLDLLLIHEVLAPGCLDAFPLLSAYVGRLSARPKLKAFLASPEYVNLPINGNGKQ
B2: StARD3: reference protein with published lutein Kd (protein, UniProt Q14849 1-445, looked up)
StAR-related lipid transfer …: MSKLPRELTRDLERSLPAVASLGSSLSHSQSLSSHLLPPPEKRRAISDVRRTFCLFVTFDLLFISLLWIIELNTNTGIRKNLEQEIIQYNFKTSFFDIFVLAFFRFSGLLLGYAVLRLRHWWVIAVTTLVSSAFLIVKVILSELLSKGAFGYLLPIVSFVLAWLETWFLDFKVLPQEAEEERWYLAAQVAVARGPLLFSGALSEGQFYSPPESFAGSDNESDEEVAGKKSFSAQEREYIRQGKEATAVVDQILAQEENWKFEKNNEYGDTVYTIEVPFHGKTFILKTFLPCPAELVYQEVILQPERMVLWNKTVTACQILQRVEDNTLISYDVSAGAAGGVVSPRDFVNVRRIERRRDRYLSSGIATSHSAKPPTHKYVRGENGPGGFIVLKSASNPRVCTFVWILNTDLKGRLPRYLIHQSLAATMFEFAFHLRQRISELGARA

Settings: Kd Source: Published; read-out: Lutein Kd

Row | Molecule | Kd [nM]
1 | B1 | 1350
2 | B2 | 450
